Reference: the Immune Epitope Database (IEDB)

Columns and labels:
Test in all cases: IEDB peptide-MHC binding, purified MHC/competitive/radioactivity; filed as Kd, often an IC50 or EC50 that approximates it; ≥ and ≤ were set here for values at or beyond the usual limits of such assays
Conditions in all cases: source organism: Toxoplasma gondii
HLA-A*03:01 = target: HLA-A*03:01
HLA-A*31:01 = target: HLA-A*31:01
HLA-A*30:01 = target: HLA-A*30:01
HLA-A*33:01 = target: HLA-A*33:01
HLA-A*68:01 = target: HLA-A*68:01

Sequence: AVVSLLRLLK
- Kd (HLA-A*03:01): 17 nM
- Kd (HLA-A*31:01): 1300 nM
- Kd (HLA-A*30:01): 8.1 nM
- Kd (HLA-A*33:01): 1100 nM
- Kd (HLA-A*68:01): 94 nM

Sequence: STFWPCLLR
- Kd (HLA-A*03:01): 22 nM
- Kd (HLA-A*31:01): 1.2 nM
- Kd (HLA-A*30:01): 1270 nM
- Kd (HLA-A*33:01): 3.4 nM
- Kd (HLA-A*68:01): 0.97 nM
